Patent US20090191198A1 (EBERHARD KARLS UNIVERSITAT TUBINGEN, published 2009)

T1: soluble NKp80 ectodomain (NKp80-ED), biotinylated, used soluble or immobilized on streptavidin-coated … (human, UniProt Q9NZS2 64-231, biotinylated with BirA ligase at the BirA-tag ; Biotinylated by BirA ligase at the N-terminal BirA-tag (tag not in the letters). Used soluble or immobilized on streptavidin-coated microspheres. …)
T1 construct: Expressed in 293T cells from pSecTag2/HygroC; also called sNKp80-ED; imNKp80
T1 sequence: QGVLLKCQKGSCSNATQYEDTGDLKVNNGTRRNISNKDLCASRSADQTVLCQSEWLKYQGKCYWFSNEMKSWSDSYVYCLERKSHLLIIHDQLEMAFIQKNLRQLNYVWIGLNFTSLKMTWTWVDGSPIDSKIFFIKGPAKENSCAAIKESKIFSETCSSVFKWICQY

B1: NKp80-ED tetramers (biotinylated NKp80 ectodomain tetramerized with PE- or APC-labelled streptavidin) (receptor, not shown: large carriers; small tags and cut ends)
chain: QGVLLKCQKGSCSNATQYEDTGDLKVNNGTRRNISNKDLCASRSADQTVLCQSEWLKYQGKCYWFSNEMKSWSDSYVYCLERKSHLLIIHDQLEMAFIQKNLRQLNYVWIGLNFTSLKMTWTWVDGSPIDSKIFFIKGPAKENSCAAIKESKIFSETCSSVFKWICQY
modifications: biotinylated with BirA ligase at the BirA-tag ; Biotinylated by BirA ligase at the BirA-tag. Tetramerized on phycoerythrin- or allophycocyanin-labelled streptavidin (four copies per streptavidin, carrier not in the letters).
notes: Same polypeptide as m1, tetramerized on labelled streptavidin before use; also called sNKp80-ED tetramers

Tests used:
[1] = molecular target: B1; assay: flow cytometry, tetramers on U937 cells
[2] = molecular target: T1, soluble NKp80 ectodomain (NKp80-ED), …; assay: flow cytometry, NKp80-ED tetramers on microsphere-immobilized NKp80-ED

Binder | binding result [1] | binding result [2]
AICL (Activation-induced C-type Lectin), natural, on myeloid cells (U937, THP-1, monocytes, macrophages, granulocytes) or in their lysates (ligand) MMTKHKKCFIIVGVLITTNIITLIVKLTRDSQSLCPYDWIGFQNKCYYFSKEEGDWNSSKYNCSTQHADLTIIDNIEETNFLRRYKCSSDHWIGLKMAKNRTGQWVDGATFTKSFGMRGSEGCAYLSDDGAATARCYTERKWICRKRIH | binds | –
B1 | – | no binding
